Assay: Biotransformation of C12 fatty acid using CFE of E. coli expressing CYP505E3 in different buffers
Type: biochemical
Description: Expression of genes in E. coli was performed by using ZYP-5052 auto-induction medium (Table 1) with in the case of the CYP 1 mM 5-aminolevulinic acid and 0.05 mM FeCl3 added. The CYP505E3 culture was cultivated using baffled flasks and incubated at 20° C. and 180 rpm for 24 h, while the GDH, and HLADH expressing cultures were all cultivated at 25° C. and 200 rpm for 24 h. Cultures were harvested through centrifugation (6 000×g, 10 min) and 1 g (wet weight) resuspended in 2 ml, 5 ml or 10 ml Tris-HCl, Phosphate or MOPS buffer, as indicated, (pH 8, 200 mM) containing 100 mM of glucose and glycerol. CFEs were obtained by a single passage of the suspended cells through a One Shot Cell Disrupter (Constant Systems) at 207 MPa. The soluble fraction was separated from unbroken cells by centrifugation (20 000×g, 20 min).
The biotransformation reaction mixture (BRM) consisted of CYP and GDH CFE suspensions prepared from cells in Tris-HCl, phosphate and MOPS buffers (1 g wet weight in 5 ml buffer) mixed in a 1:1 ratio with 0.1 mM NADPH added. The final CYP concentrations were 1.1, 1.3 and 1.5 μM in respectively the Tris-HCl, phosphate and MOPS buffers. Dodecanoic acid (20 μl of 255 or 510 mM fatty acid stock solution in DMSO) was added to 40 ml amber glass vials containing 1 ml BRM to give final substrate concentrations of 5 and 10 mmol·LBRM^−1. […]

B1: CYP505E3: self-sufficient cytochrome P450 monooxygenase from Aspergillus terreus, SEQ ID No 1 (protein, listed as Aspergillus terreus)
chain: MIKETEQIPGPRPLPVVGNLFDMDLEHGLECLIRLADDFGPLFQITINGEKQIFATSQALVDELCDESRFHKAVMGGLEKLRMLASDGLFTAYHGERGWGIAHRILVPAFGPLRIRNMFEEMNDVAQQLCLKWARQGSSTSINITDDFTRLTLDTIALCTMNFRLNSFYNNETMHPFVKSMLYVLRESDIQSMLPGIANCIRVKARSRMSKHIQLMRNMARGIIQERRDQAEPVDDLLNTLLNGRDPVTGEGMSDDLIINNVITFLIAGHETTSGLLSFTFYYLLQNPHILERAQNEVDEVTGGERITVQHLGRLTYIDAILKESLRLMPTAPAFTVTPKKPEVLGGAWAIDAGQAVNVLLPVCLRDRSVFGPDADEFRPERMLEENFSKLPPNSWKPFGNGERSCIGRAFAWQEAQLVVAMVLQTFDLVPDDPSYKLRIKETLTIKPDGFRVRATLRRGQSATGLSQGSMSASGATSSVASPGPPAATGAQSNPAGGQRISFFYGSNSGTCKALAHRLASSLMGRGFTEQKLAALDTVVGNLPTDQPVIIVTTSYDGRPTDDAEEFVRWLESKRPVLQGVSYAVFGCGHHDWAKTFYRIPILIDDLMHKAGATRLTALGTANAAVSDLFSDLELWEETNLLPALREAFPPSNSSDVESSEPHQLQICVSKPRRVDMHRGLVEAKVTAVRTLTSPDSPEKRHVEFHVQGDTTWRPGDHVNILPVNPLSTVSRVLAYFQLAPDHSITVNSFNTQGLPSATPVSATELFSSFVELSQPATRKNLKALAMAAESKTDEQELIRLHDSYDALVRDKRVSVLDILERFPSISLPIGIFISMLPPLRLRTYSLSMAPSFKPSHGSLTFSVINEPAWSGNGQYLGVGSNYLASLTPGSLLYLSPRPAKDAFHLPADQFNTPIIMICAGSGLAPFMGFIQERMTWLKQGRPLAKGLLFFGCRGPHLDDLYYEELSEFEDAGVVEVHRAYSRAPDDVRAKGCRHVQHRLVTEAEAVRDHWGRNAIVYVCGSSNMARGVQTVLEEILGTLPPERYVAEIF
In the case of B1, the conversion of substrate (5 mM dodecanoic acid, within 24 h, all buffers) is reported as “almost completely converted” and the “δ-dodecalactone and 5-OH 12FAME as share of the total products” value (dodecanoic acid, CFE, Tris-HCl, phosphate or MOPS buffer pH 8) is reported as 30-35%.

— patent US10975360B2, “Process for the modification of alkanes, fatty acids and fatty alcohols” (priority 2016, dated 2021)
